Assays:
[1] = molecular target: T1, recombinant soluble recombinant human α5β1 integrin-Fc fusion protein (human, UniProt P08648 42-995; P05556 21-728, limits assumed); assay: competition ELISA on coated α5β1 integrin-Fc; competitor: biotinylated IIA1
T1 construct: Coated on ELISA plates at 1.0 µg/ml; The construct's limits and the Fc are not described; not shown: Fc part
Experimental: (§1) Wells of 96-well ELISA plates (Nunc-Immuno MaxiSorp plate, NalgeNunc, Naperville, Ill.) were coated with 100 μl of 1.0 μg/ml recombinant soluble recombinant human α5β1 integrin-Fc fusion protein in 0.2 M sodium carbonate-bicarbonate buffer (pH 9.4) overnight at 4° C. After washing with Wash Buffer (PBS containing 0.1% Tween 20), wells were blocked with 200 μl of Superblock Blocking Buffer (Pierce) for 30 min and then washed with Wash Buffer. A mixture of biotinylated murine IIA1 (0.1 μg/test) and competitor antibody (duplicates of serial 3-fold dilutions of competitior antibodies starting at 5 mg/ml) in ELISA Buffer (PBS containing 1% BSA and 0.1% Tween 20) was applied to ELISA plates in a final volume of 100 μl per well. ELISA plates were incubated for 1 hr at room temperature and the wells were washed with Wash Buffer. Then, […] of 1/1,000-diluted HRP-conjugated streptavidin (Pierce, Rockford, Ill.) in ELISA Buffer was applied to each well. After incubating for 0.5 hr at room temperature and washing with Wash Buffer, 100 μl of TMB substrate was added to each well. Absorbance was read at 450 nm using a VERSAmax microplate reader (Molecular Devices, Menlo Park, Calif.). Final competitor concentration in the reaction was plotted versus absorbance at 450 nm.

[2] = molecular target: T1, recombinant soluble recombinant human …; assay: competition ELISA: plate coated with human α5β1 integrin-Fc, unlabelled antibody titrated against biotinylated murine IIA1, streptavidin-HRP, O.D. 450
Experimental: as §1

[3] = molecular target: T2, AAB1/B2Fc; assay: SPR (BIAcore), antibody immobilized by amine coupling, AAB1/B2Fc as analyte, 24° C
T2 construct: Analyte in the BIAcore experiment
Experimental: (§2) Affinities between AAB1/B2Fc and IIA1, M200 or F200 were analyzed using BIAcore 3000 and 2000 (BIAcore, Sweden). IIA1, M200 or F200 was immobilized on the Pioneer F 1 chip using standard amine coupling kit (BIAcore). Surface plasmon resonance was measured at a flow rate of 50 ul/min at 24° C. Injection of AAB1/B2Fc (association phase) occurs over 180 seconds. Dissociation was subsequently monitored over 3 hours. Kinetics of binding were calculated from data acquired at five different concentrations of analyte (320 nM, 160 nM, 80 nM, 40 nM, 20 nM), using the BIAevaluation program. Double-referencing was applied to eliminate responses from reference surface and buffer only control. KD was obtained by simultaneously fitting the association and dissociation phases of the sensorgram from the analyte concentration series.

[4] = molecular target: T2, AAB1/B2Fc; assay: SPR (BIAcore), Fab immobilized by amine coupling, AAB1/B2Fc as analyte, 24° C
Experimental: as §2

T1 sequence (P08648 42-995 limits assumed, chain 1 of 2): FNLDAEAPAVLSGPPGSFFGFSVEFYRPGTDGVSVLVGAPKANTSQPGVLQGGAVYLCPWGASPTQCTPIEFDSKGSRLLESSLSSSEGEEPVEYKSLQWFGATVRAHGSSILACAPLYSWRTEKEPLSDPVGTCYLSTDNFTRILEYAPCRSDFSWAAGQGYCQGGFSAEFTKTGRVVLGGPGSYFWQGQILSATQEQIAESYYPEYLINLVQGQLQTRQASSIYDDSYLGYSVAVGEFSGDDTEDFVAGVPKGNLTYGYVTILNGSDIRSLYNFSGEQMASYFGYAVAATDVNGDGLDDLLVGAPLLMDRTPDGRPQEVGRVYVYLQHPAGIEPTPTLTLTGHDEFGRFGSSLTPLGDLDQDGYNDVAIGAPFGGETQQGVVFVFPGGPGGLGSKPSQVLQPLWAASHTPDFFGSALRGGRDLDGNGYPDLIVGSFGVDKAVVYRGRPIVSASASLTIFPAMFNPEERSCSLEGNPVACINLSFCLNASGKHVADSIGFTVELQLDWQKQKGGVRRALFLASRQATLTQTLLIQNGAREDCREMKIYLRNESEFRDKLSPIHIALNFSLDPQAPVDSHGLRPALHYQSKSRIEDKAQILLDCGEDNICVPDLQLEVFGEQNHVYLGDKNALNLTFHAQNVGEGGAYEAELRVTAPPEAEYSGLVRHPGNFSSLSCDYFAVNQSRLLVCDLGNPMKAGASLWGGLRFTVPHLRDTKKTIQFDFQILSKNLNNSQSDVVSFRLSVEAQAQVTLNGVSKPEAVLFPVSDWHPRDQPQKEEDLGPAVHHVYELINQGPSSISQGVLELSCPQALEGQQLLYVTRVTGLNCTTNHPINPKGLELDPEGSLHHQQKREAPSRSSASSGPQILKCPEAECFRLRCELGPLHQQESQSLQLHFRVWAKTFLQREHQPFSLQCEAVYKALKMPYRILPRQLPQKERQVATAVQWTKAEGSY
T1 sequence (P05556 21-728 limits assumed, chain 2 of 2): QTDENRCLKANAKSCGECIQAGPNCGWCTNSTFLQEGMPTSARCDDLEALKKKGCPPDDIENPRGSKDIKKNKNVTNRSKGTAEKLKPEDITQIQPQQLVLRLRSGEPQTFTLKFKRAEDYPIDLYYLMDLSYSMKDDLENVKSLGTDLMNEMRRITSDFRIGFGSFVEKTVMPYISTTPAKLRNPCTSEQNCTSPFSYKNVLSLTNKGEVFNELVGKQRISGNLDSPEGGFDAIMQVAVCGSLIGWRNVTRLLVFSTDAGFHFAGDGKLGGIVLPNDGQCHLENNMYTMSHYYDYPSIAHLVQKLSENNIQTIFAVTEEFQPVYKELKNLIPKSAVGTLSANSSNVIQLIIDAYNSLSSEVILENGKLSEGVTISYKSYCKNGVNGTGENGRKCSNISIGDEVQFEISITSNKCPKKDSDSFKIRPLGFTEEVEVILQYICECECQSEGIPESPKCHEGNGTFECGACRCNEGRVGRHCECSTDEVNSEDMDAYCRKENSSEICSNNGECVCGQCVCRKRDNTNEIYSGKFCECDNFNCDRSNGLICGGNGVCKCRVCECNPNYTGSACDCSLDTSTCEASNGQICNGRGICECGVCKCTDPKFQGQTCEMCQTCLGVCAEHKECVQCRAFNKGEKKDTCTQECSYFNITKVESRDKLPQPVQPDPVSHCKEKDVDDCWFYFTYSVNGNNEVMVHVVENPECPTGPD

IC50 [1] [mg/L] | IC50 (read off the curve) [2] [µg] | Kd [3] [nM] | Kd [4] [nM] | Binder
132 | ~0.02 | – | – | HuM200, humanized M200 with IgG4 constant region (antibody, V domains shown, Humanized IgG4; also called HuM200-G4; huM200-G4) VH: EVQLVESGGGLVQPGGSLRLSCAASGFSLTDYGVHWVRQAPGKGLEWLVVIWSDGSSTYNSALKSRMTISKDNAKNTVYLQMNSLRAEDTAVYYCARHGTYYGMTTTGDALDYWGQGTLVTVSS VL: EIVLTQSPATLSLSPGERATLSCTASSSVSSNYLHWYQQKPGQAPRLLIYSTSNLASGVPARFSGSGSGTSYTLTISSLEPEDFAVYYCHQYLRSPPTFGGGTKVEIKR
103 | ~0.02 | – | – | HuM200-g2 m3G, humanized M200 with IgG2 constant region (antibody, V domains shown, Same variable domains as HuM200 with a constant region of IgG2) VH: EVQLVESGGGLVQPGGSLRLSCAASGFSLTDYGVHWVRQAPGKGLEWLVVIWSDGSSTYNSALKSRMTISKDNAKNTVYLQMNSLRAEDTAVYYCARHGTYYGMTTTGDALDYWGQGTLVTVSS VL: EIVLTQSPATLSLSPGERATLSCTASSSVSSNYLHWYQQKPGQAPRLLIYSTSNLASGVPARFSGSGSGTSYTLTISSLEPEDFAVYYCHQYLRSPPTFGGGTKVEIK
79.1 | ~0.02 | – | – | IIA1, mouse anti-human α5β1 integrin antibody (antibody, V domains shown, Mouse monoclonal antibody (Pharmingen); also called murine IIA1; M100) VH: QVQLKESGPGLVAPSQSLSITCTISGFSLTDYGVHWVRQPPGKGLEWLVVIWSDGSSTYNSALKSRMTIRKDNSKSQVFLIMNSLQTDDSAMYYCARHGTYYGMTTTGDALDYWGQGTSVTVSS VL: QIVLTQSPAIMSASLGERVTMTCTASSSVSSNYLHWYQQKPGSAPNLWIYSTSNLASGVPARFSGSGSGTSYSLTISSMEAEDAATYYCHQYLRSPPTFGGGTKLEIKR
106 | ~0.02 | 0.367 | – | M200 chimeric anti-α5β1 integrin antibody (antibody, human IgG4, kappa, V domains shown, Mouse/human chimeric IgG4/kappa; also called 200-M; 200-4 EOS) VH: QVQLKESGPGLVAPSQSLSITCTISGFSLTDYGVHWVRQPPGKGLEWLVVIWSDGSSTYNSALKSRMTIRKDNSKSQVFLIMNSLQTDDSAMYYCARHGTYYGMTTTGDALDYWGQGTSVTVSS VL: QIVLTQSPAIMSASLGERVTMTCTASSSVSSNYLHWYQQKPGSAPNLWIYSTSNLASGVPARFSGSGSGTSYSLTISSMEAEDAATYYCHQYLRSPPTFGGGTKLEIKR
– | – | – | 0.332 | F200, Fab fragment of M200 (Fab, V domains shown, Made by papain digestion of M200 IgG) VH: QVQLKESGPGLVAPSQSLSITCTISGFSLTDYGVHWVRQPPGKGLEWLVVIWSDGSSTYNSALKSRMTIRKDNSKSQVFLIMNSLQTDDSAMYYCARHGTYYGMTTTGDALDYWGQGTSVTVSS VL: QIVLTQSPAIMSASLGERVTMTCTASSSVSSNYLHWYQQKPGSAPNLWIYSTSNLASGVPARFSGSGSGTSYSLTISSMEAEDAATYYCHQYLRSPPTFGGGTKLEIKR

— patent publication US20050163769A1 (AbbVie / Abbott, published 2005)
